Residues, ends and D or L forms follow the SMILES beside them. Primed or numbered codes have the meaning given here. No end group written: not given here. *: point of attachment. 5FAM = O=C1OC2(c3ccc(O)cc3Oc3cc(O)ccc32)c2ccc(C(=O)*)cc21; FITC′ = fluorescein isothiocyanate
Assays:
[1] = molecular target: T1, Bcl-2/iso1 (Homo sapiens, UniProt P10415, DEL35-91/INS34DVEENRTEAPEGTESE/R110G/T96A); assay: Competitive fluorescence polarization assay, peptide binding to Bcl-2/iso1
T1 construct: His tag (pET28b, thrombin-cleavable) (N, cleaved yes); made in house; host or cells: E. coli BL21(DE3)
Procedure: A competitive fluorescence polarization assay was used to measure the affinity of various peptides for Bcl-2/iso1 (see Table 2) or Bcl-2/iso2 (see Table 3). Competitive assays were performed using one of the following three fluorescein-labeled peptides as a probe:
(§1) All titrations were automated by means of an Abbott clinical diagnostics instrument (IMx, FPIA mode) modified with a special protocol for performing titrations. A complete two-fold dilution series, comprised of twenty separate 2 mL samples, was obtained by delivering appropriate individual aliquots to the first seven tubes, aliquots from an intermediate diluted stock for the next seven, and one more intermediate dilution for the final six. […] The final DMSO concentration for all samples never exceeded 1%. Twenty 1.8 uL samples were prepared without fluoresceinatedpeptide and read as blanks. To each tube, 0.2 uL of a Bcl-2, fluoresceinatedpeptide mixture was added; the tubes were incubated for 5 min at 35° C., and then read for total intensity and polarization.

[2] = molecular target: T1, Bcl-2/iso1; assay: Fluorescence polarization titration of fluoresceinated probe peptides with Bcl-2/iso1; type: binding
Procedure: (3) (FITC)-AAQRYGRELRRMSDEFVR(SEQ ID NO:19). The dissociation constants of these fluoresceinated peptides from Bcl-2/iso1 are ˜20 nM, ˜50 nM, and ˜100 nM, respectively.
as §1, with “The concentrations of the” for “The final”, “DMSO stock solutions of the peptide were 1–4 mM as determined by Trp absorbance (O.D. 280 nm), Tyr absorbance (O.D. 293), or amino acid analysis. […]” for “DMSO concentration for all samples never exceeded 1%.”, “polarization. […]” for “polarization.”
Steady state polarization data can be analyzed to extract the fractions of bound and free fluorescent ligand owing to the linear additivity of their anisotropy values, weighted by their respective fractional intensities (Lakowicz, JR. Principles of Fluorescence Spectroscopy. New York, N.Y.: Plenum Press (1983)). […]

[3] = Isoelectric point of Bcl-2 / Bcl-xL proteins; type: physicochemical, human; conditions: pH at which the protein carries no net charge
Source text: As used herein, the term “isoelectric point” (or pI) refers to the pH at which the protein carries no net charge. The isoelectric points of Bcl-2/iso1, Bcl-2/iso2, and Bcl-2/iso3 are about 7.0, 7.2 and 7.2, respectively. The mutant proteins of the present invention have an isoelectric point lower than that of wild-type Bcl-2 and preferably, in the range of 4.5 to about 6.0. More preferably, the isoelectric point of a mutant protein of the invention is from 4.5 to about 5.5. A more preferred isoelectric point is from about 5.0 to about 5.5. A most preferred isoelectric point is 5.0. Means for determining the isoelectric point of a protein are well known to those of ordinary skill in the art.

[4] = molecular target: mutant Bcl-2/iso1 protein (Bcl-2/iso1 residues 1-34, Bcl-xL loop residues 29-44, Bcl-2/iso1 residues 92-207; plasmid C) (human); assay: fluorescence polarization, direct titration of the fluoresceinated peptide with Bcl-2
[5] = molecular target: mutant Bcl-2/iso1 protein (Bcl-2/iso1 residues 1-34, Bcl-xL loop residues 29-44, Bcl-2/iso1 residues 92-207; plasmid C) (human); assay: competitive fluorescence polarization, displacement of a fluorescein-labeled peptide probe from Bcl-2 (340 nM)
[6] = molecular target: mutant Bcl-2/iso2 protein (plasmid C construct with Ala96 to Thr96 and Gly110 to Arg110; plasmid D) (human); assay: as above

T1 sequence (P10415 with tags, fused parts or gaps with the stated changes): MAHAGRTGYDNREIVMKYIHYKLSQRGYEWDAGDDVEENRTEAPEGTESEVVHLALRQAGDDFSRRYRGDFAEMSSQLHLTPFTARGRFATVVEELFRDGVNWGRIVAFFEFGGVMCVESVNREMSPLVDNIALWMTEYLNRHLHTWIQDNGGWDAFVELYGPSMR

Molecule | Kd [1] [nM] | Kd [5] [nM] | also measured
NLWAAQRYGREARRMSDEFVDSFKK [SEQ ID NO:33] | 7480 |  | 
CSCC[C@H](NC(=O)[C@H](CCCNC(=N)N)NC(=O)[C@H](CCCNC(=N)N)NC(=O)[C@H](CC(C)C)NC(=O)[C@H](CCC(=O)O)NC(=O)[C@H](CCCNC(=N)N)NC(=O)CNC(=O)[C@H](Cc1ccc(O)cc1)NC(=O)[C@H](CCCNC(=N)N)NC(=O)[C@H](CCC(N)=O)NC(=O)[C@H](C)NC(=O)[C@H](C)NC(=O)[C@H](C)NC(=O)[C@H](C)NC(=O)[C@H](C)NC(=O)c1ccc2c(c1)C(=O)OC21c2ccc(O)cc2Oc2cc(O)ccc21)C(=O)N[C@@H](CO)C(=O)N[C@@H](CC(=O)O)C(=O)N[C@@H](CCC(=O)O)C(=O)N[C@@H](Cc1ccccc1)C(=O)N[C@H](C(=O)N[C@@H](CC(=O)O)C(=O)N[C@@H](CO)C(=O)N[C@@H](Cc1ccccc1)C(=O)N[C@@H](CCCCN)C(=O)N[C@@H](CCCCN)C(=O)O)C(C)C (5FAM-AAAAAQRYGRELRRMSDEFVDSFKK-OH) |  |  | Kd [2]: ~20 nM
NLWAAQRYGRELRRMSAEFVDSFKK [SEQ ID NO:34] | 762 |  | 
NLWGAQRYGRELRRMSDEFVDSFKK [SEQ ID NO:24] | 159 |  | 
NLWAAQRYGRELRRMSDEFVDSFAK [SEQ ID NO:28] | 123 |  | 
QRYGRELRRMSDEFVDSFKK [SEQ ID NO:35] | 711 |  | 
NLWAAQRYARELRRMSDEFVAAFKK [SEQ ID NO:32] | 186 |  | 
NLWAAQRYGRELRRMSDEFVDSFKA [SEQ ID NO:29] | 22 |  | 
NLWAAQRYGRELRRMSDEFVDSAKK [SEQ ID NO:27] | 397 |  | 
NAWAAQRYGRELRRMSDEFVDSFKK [SEQ ID NO:22] | 75 |  | 
AAAAAQRYGRELRRMSDEFVDSFKK [SEQ ID NO:17] | 74 |  | 
GGGAAQRYGRELRRMSDEFVDSFKK [SEQ ID NO:30] | 63 |  | 
NLPAAQRYGRELRRMSDEFVDSFKK [SEQ ID NO:31] | 54 |  | 
ALWAAQRYGRELRRMSDEFVDSFKK [SEQ ID NO:21] | 211 |  | 
NLWAGQRYGRELRRMSDEFVDSFKK [SEQ ID NO:25] | 105 |  | 
NLWAAQRYGRELRRMSDEFVD [SEQ ID NO:36] | 2330 |  | 
Bcl-2/iso2: wild-type human Bcl-2 protein isoform 2 (SEQ ID NO:4) |  |  | isoelectric point [3]: ~7.2
CSCC[C@H](NC(=O)[C@H](CCCNC(=N)N)NC(=O)[C@H](CCCNC(=N)N)NC(=O)[C@H](CC(C)C)NC(=O)[C@H](CCC(=O)O)NC(=O)[C@H](CCCNC(=N)N)NC(=O)CNC(=O)[C@H](Cc1ccc(O)cc1)NC(=O)[C@H](CCCNC(=N)N)NC(=O)[C@H](CCC(N)=O)NC(=O)[C@H](C)NC(=O)[C@H](C)NC(=O)[C@H](C)NC(=O)[C@H](C)NC(=O)[C@H](C)NC(=O)c1ccc2c(c1)C(=O)OC21c2ccc(O)cc2Oc2cc(O)ccc21)C(=O)N[C@@H](CO)C(=O)N[C@@H](CC(=O)O)C(=O)N[C@@H](CCC(=O)O)C(=O)N[C@@H](Cc1ccccc1)C(=O)N[C@H](C(=O)N[C@@H](CC(=O)O)C(=O)N[C@@H](CO)C(=O)N[C@@H](CCCCN)C(=O)N[C@@H](CCCCN)C(=O)O)C(C)C (5FAM-AAAAAQRYGRELRRMSDEFVDSKK-OH; C-terminus assumed) |  |  | Kd [2]: ~50 nM
NLAAAQRYGRELRRMSDEFVDSFKK [SEQ ID NO:23] | 39 |  | 
NLWAAQRYGRELRRMSDEFVDAFKK [SEQ ID NO:26] | 26 |  | 
5FAM-AAAAAQRYGRELRRMSDEFVDSFKK [(5-FAM)-… (SEQ ID NO:17), fluorescein-labeled peptide probe (1)] |  |  | Kd [4]: 20 nM

Molecule | Kd [1] [nM] | Kd [5] [nM] | also measured
NLWAAQRYGRELRRMSDEFVDSFKK [peptide … (SEQ ID NO:20)] |  | 14 | Kd [6]: 8 nM
ALWAAQRYGRELRRMSDEFVDSFKK [peptide … (SEQ ID NO:21)] |  | 211 | 
NAWAAQRYGRELRRMSDEFVDSFKK [peptide … (SEQ ID NO:22)] |  | 75 | 
NLAAAQRYGRELRRMSDEFVDSFKK [peptide … (SEQ ID NO:23)] |  | 39 | 
AAAAAQRYGRELRRMSDEFVDSFKK [peptide … (SEQ ID NO:17), not labeled] |  | 74 | 
NLWGAQRYGRELRRMSDEFVDSFKK [peptide … (SEQ ID NO:24)] |  | 159 | 
NLWAGQRYGRELRRMSDEFVDSFKK [peptide … (SEQ ID NO:25)] |  | 105 | 
NLWAAQRYGRELRRMSDEFVDAFKK [peptide … (SEQ ID NO:26)] |  | 26 | 
NLWAAQRYGRELRRMSDEFVDSAKK [peptide … (SEQ ID NO:27)] |  | 397 | 
NLWAAQRYGRELRRMSDEFVDSFAK [peptide … (SEQ ID NO:28)] |  | 123 | 
5FAM-AAAAAQRYGRELRRMSDEFVDSKK [(5-FAM)-… (SEQ ID NO:18), fluorescein-labeled peptide probe (2)] |  |  | Kd [4]: 50 nM
NLWAAQRYGRELRRMSDEFVDSFKA [peptide … (SEQ ID NO:29)] |  | 22 | 
GGGAAQRYGRELRRMSDEFVDSFKK [peptide … (SEQ ID NO:30)] |  | 63 | 
NLPAAQRYGRELRRMSDEFVDSFKK [peptide … (SEQ ID NO:31)] |  | 54 | 
NLWAAQRYARELRRMSDEFVAAFKK [peptide … (SEQ ID NO:32)] |  | 186 | 
NLWAAQRYGREARRMSDEFVDSFKK [peptide … (SEQ ID NO:33)] |  | 7480 | 
NLWAAQRYGRELRRMSAEFVDSFKK [peptide … (SEQ ID NO:34)] |  | 762 | 
QRYGRELRRMSDEFVDSFKK [peptide … (SEQ ID NO:35)] |  | 711 | 
NLWAAQRYGRELRRMSDEFVD [peptide … (SEQ ID NO:36)] |  | 2330 | 
GQVGRQLAIIGDDINR [peptide … (SEQ ID NO:37)] |  |  | Kd [6]: 1600 nM
{FITC′}-AAQRYGRELRRMSDEFVR [(FITC)-… (SEQ ID NO:19), fluorescein-labeled peptide probe (3)] |  |  | Kd [4]: 100 nM

— US7226992B1, “Mutant Bcl-2 proteins and uses thereof” (Abbott Laboratories, priority 2000, dated 2007)
